In patent publication US20100249383A1, “Novel Ligand Involved In The Transmigration Of Leukocytes Across the Endothelium and Uses Therefor” (The Regents of The University of California and The Burnham …, priority 2001, published 2010):
Values joined by “and” are separate entries in the source; they are usually repeats but may differ in a detail not shown here. Equal values may be shown once.

How the values were obtained:
HUVECs = test: Surface binding of iodinated S100A8/A9 to endothelial cells; design: species or system human
Description: Human umbilical vein endothelial cells (HUVECs) were grown in Endothelial Cell growth Medium (Cell Applications) at 37° C. in 5% CO2. Cell staining and Western blotting were performed to confirm expression of mAbGB3.1 antigens. HUVECS at passages 3-4 were used in the binding assays. Purified proteins were radioiodinated using Na^125I and Iodo-Beads Iodinating Reagent as per the manufacturer's protocols. Unbound label was removed on a Sephadex G25 column, followed by concentration of the void volume fractions using Centricon10 concentrators.
Cells grown to confluence in 12 well plates and activated with 1 μM PAF for 4 hr. Activated and unactivated cells were washed with cold HBSS and then incubated with 4 nM to 80 nM ^125I-S100A8/A9 in 1 ml of HBSS, or 20 nM labeled complex in the absence and presence of modulators at 4° C. for 2 h. The reaction was stopped by rapid removal of unbound label, and the cells were washed thrice with cold HBSS. They were solubilized in 1 M NaOH followed by addition of an equal volume of 1 M HCl, and the radioactivity associated with the lysates was measured using a gamma counter. […] Panels 2 and 3 show the results for HUVECs incubated with 20 nM labeled complex in the absence or presence of modulators, in 1 ml of HBSS at 4° C. for 2 hours.

[1] = tested on: 0.3 M asialo-COO^− glycopeptide-BSA neoglycoproteins; test: ELISA binding of purified proteins to immobilized carboxylated bovine lung glycans; settings: FIG. 19 or data not shown
Description: In additional ELISA experiments, 96-well plates were coated with 0.3 M asialo-COO^− glycopeptide-BSA neoglycoproteins (250 ng/well) for 4 h at 37° C. (control wells had BSA alone) and blocked with 3% BSA in PBS overnight. The wells were then incubated with purified human annexin I or S100A8/A9 complexes (as appropriate), in 10 mM HUES buffer pH 7.5 containing 150 mM NaCl, 5 mM KCl, 1.2 mM MgCl2 and 1.3 mM CaCl2, in the absence or presence of varying concentrations of 0.3 M asialo-COO^− glycopeptides or 0.3 M asialo-CONHMe-glycopeptides for 2 h at room temperature. This was followed by incubation with anti-bovine annexin I antibody or anti-human S100A8 or anti-S100A9 for 2 h at room temperature. Wells were then washed and incubated with alkaline phosphatase conjugated goat anti-mouse IgG, followed by development with p-nitrophenyl phosphate substrate.
In this Example, experiments conducted to assess amphoterin binding to COO^− glycopeptide coated plates was assayed as described earlier for annexin I and S100 proteins. In addition, bound protein was detected using anti-amphoterin. mAbGB3.1 binding to sRAGE was assessed by first coating sRAGE on microtiter wells for 4 h at 37° C. After blocking with 3% BSA in PBS overnight, wells were incubated with mAbGB3.1 in the presence and absence of COO^−or CONHMe-glycopeptide and developed as described above.

[2] = tested on: [2-^3H]mannose-labeled CPAE glycoproteins; test: Precipitation of mannose-labeled glycoproteins and cross-binding; design: species or system bovine
Description: Calf pulmonary artery endothelial cells (CPAE) cells were labeled with [2-^3H] mannose at 20 μCi/ml for 24 h in alpha MEM containing 10% fetal bovine serum. Cells were harvested by trypsinization, washed thrice in PBS, and lysed in PBS containing protease inhibitors and 0.5% NP40. Protein-rich lysates were prepared by ultrafiltration on YM10 membranes. Purified S100A8/A9 or annexin I proteins were immobilized on Affigel-10, and mixed with the labeled glycoproteins from CPAE cells in 10 mM HEPES buffer pH 7.5 containing 150 mM NaCl, 5 mM KCl, 1.2 mM MgCl2 and 1.3 mM CaCl2 after preclearing the lysates with BSA-Affigel 10. For immunoprecipitations using mAbGB3.1, lysates were precleared with normal mouse IgG-protein G beads and then incubated with Protein G coupled to mAbGB3.1 IgG in PBS. After overnight incubation at 4° C., the individual pellets were washed free of all unbound label until no more counts appeared in the washes, and the radioactivity associated with the pellets was measured.
For cross-binding, label associated with each pellet was first eluted using high salt (5 M MgCl2, which eluted >70% bound label). The eluates were repeatedly desalted on YM10 membranes and resuspended in the respective buffers. Label eluted from mAbGB3.1 gels was mixed with immobilized S100A8/A9 or annexin I and vice versa. Again, after overnight incubation at 4° C., the individual pellets were washed free of all unbound label and counted. […] In comparison, immobilized annexin I precipitated only about 2-3% of mannose labeled glycoproteins from endothelial cells (data not shown).

RAGE = biological target: T1, RAGE (Bos taurus, UniProt Q28173); test: Binding assays using ^125I amphoterin on immobilized RAGE; design: species or system bovine
T1 construct: from tissue; host or cells: bovine lung (inferred); amphoterin from baculovirus-infected insect cells
T1 sequence (Q28173 23-416): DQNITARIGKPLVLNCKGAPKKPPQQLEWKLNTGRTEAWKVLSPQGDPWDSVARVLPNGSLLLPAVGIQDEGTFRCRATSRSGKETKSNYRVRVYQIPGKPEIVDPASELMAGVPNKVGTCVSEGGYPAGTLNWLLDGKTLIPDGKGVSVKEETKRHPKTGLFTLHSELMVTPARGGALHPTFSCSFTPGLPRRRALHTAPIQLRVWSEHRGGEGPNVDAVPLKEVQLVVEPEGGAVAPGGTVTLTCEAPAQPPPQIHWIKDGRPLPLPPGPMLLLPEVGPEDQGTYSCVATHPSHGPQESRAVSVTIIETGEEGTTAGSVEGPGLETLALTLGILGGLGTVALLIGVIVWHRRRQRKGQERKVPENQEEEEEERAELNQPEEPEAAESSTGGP
Description: Amphoterin was radioiodinated using Na ^125I and Iodo-Beads Iodinating Reagent (Pierce) to a specific activity of 5×10^3 cpm/ng protein. Saturation binding experiments were done by a slight modification of the method of Hori et al (Hori at al., J. Biol. Chem., 270:25752-61 [1995]). Briefly, purified RAGE was immobilized on microliter wells and the wells blocked with 3% BSA. Wells were incubated at 4° C. overnight with increasing concentrations of ^125I amphoterin in HBSS containing 0.1% BSA in the presence or absence of desialylated carboxylate-enriched (COO^−) or CONHMe bovine lung glycopeptides, or 20 μg/ml mAbGB3.1 or an unrelated anti-carbohydrate monoclonal antibody, or 100 fold excess of unlabeled amphoterin. Binding was also tested on RAGE deglycosylated by PNGase F under non-denaturing conditions. Wells were washed, bound amphoterin was eluted with 2 M NaCl, and radioactivity was measured using a gamma counter. Non-linear regression analysis was done using the GraphPad Prism program.

[3] = biological target: [2-3H]mannose-labeled CPAE glycoproteins; test: precipitation of [2-3H]mannose-labeled CPAE glycoproteins by S100A8/A9 on Affigel-10 (10,286 cpm added)
[4] = biological target: [2-3H]mannose-labeled CPAE glycoproteins eluted from mAbGB3.1; test: rebinding to immobilized S100A8/A9 of label eluted from mAbGB3.1 (4,951 cpm added)
[5] = biological target: cell surface binding sites on human umbilical vein endothelial cells (HUVECs); test: binding of 125I-S100A8/A9 to unactivated HUVECs (data not shown)
[6] = biological target: cell surface binding sites on human umbilical vein endothelial cells (HUVECs); test: competition of 20 nM 125I-S100A8/A9 on PAF-activated HUVECs by unlabeled S100A8/A9
[7] = biological target: [2-3H]mannose-labeled CPAE glycoproteins eluted from mAbGB3.1; test: rebinding to immobilized S100A8/A9 of label eluted from mAbGB3.1 (1,961 cpm added)
[8] = biological target: [2-3H]mannose-labeled CPAE glycoproteins; test: precipitation of [2-3H]mannose-labeled CPAE glycoproteins by S100A8/A9 on Affigel-10 (20,386 cpm added)
[9] = biological target: [2-3H]mannose-labeled CPAE glycoproteins; test: precipitation of [2-3H]mannose-labeled CPAE glycoproteins by annexin I on Affigel-10 (data not shown)

^125I-S100A8/A9: purified S100A8/A9 radioiodinated using Na^125I
binding on PAF-activated HUVECs (HUVECs; 4 nM to 80 nM, 4° C. 2 h, FIG. 20 Panel A): dose-dependent and saturable binding
binding to unactivated cells, less than to PAF-activated cells (HUVECs; data not shown): 2 fold

S100A8/A9: heteromeric S100A8/S100A9 complex purified from human neutrophil cytosol
binding to immobilized carboxylated vs neutralized glycans [1]: same specificity of binding
IC50 (HUVECs; unlabeled ligand, 20 nM labeled complex, PAF-activated HUVECs, FIG. 20 Panel B, read-out: half maximal competition of specific binding of ^125I-S100A8/A9): ~500 nM
% Bound Radioactivity (mean ± SD) ([2]; primary binding): 9% and 8.7 ± 0.5%
% Bound Radioactivity (mean ± SD) ([2]; primary binding to mAbGB3.1, eluted label rebinding to S100A8/A9): 31.5 ± 0.2%
% Bound Radioactivity (mean ± SD) ([2]; primary binding to mAbGB3.1, eluted label rebinding to S100A8/A9, listed as S100A8/A9 complex): about one-third
% Bound Radioactivity (mean ± SD) ([2]; primary binding, listed as S100A8/A9 complex): 9%

B1: amphoterin: baculovirus expressed rat amphoterin, neurite growth-promoting protein, ligand of RAGE (protein)
chain: GKGDPKKPRGKMSSYAFFVQTCREEHKKKHPDASVNFSEFSKKCSERWKTMSAKEKGKFEDMAKADKARYEREMKTYIPPKGETKKKFKDPNAPKRPPSAFFLFCSEYRPKIKGEHPGLSIGDVAKKLGEMWNNTAADDKQPYEKKAAKLKEKYEKDIAAYRAKGKPDAAKKGVVKAEKSKKKKEEEDDEEDEEDEEEEEEEEDEDEEEDDDDE
binding to immobilized carboxylated vs neutralized glycans [1]: carboxylate dependent manner
Bmax (RAGE; in presence of soluble COO^− glycopeptides): approximately 34.7±3.7 fmole/well
Bmax (RAGE; native purified RAGE): approximately 52.7±4.3 fmole/well

B2: purified human S100A8/A9 complex from peripheral blood neutrophils (ligand)
chain 1: MLTELEKALNSIIDVYHKYSLIKGNFHAVYRDDLKKLLETECPQYIRKKGADVWFKELDINTDGAVNFQEFLILVIKMGVAAHKKSHEESHKE
chain 2: TCKMSQLERNIETIINTFHQYSVKLGHPDTLNQGEFKELVRKDLQNFLKKENKNEKVIEHIMEDLDTNADKQLSFEEFIMLMARLTWASHEKMHEGDEGPGHHHKPGLGEGTP
cpm bound to gel [3]: 928 cpm
cpm bound to gel [4]: 1570 cpm
fold less binding to unactivated than to PAF-activated cells [5]: 2 fold
IC50 [6]: 500 nM
cpm bound to gel [7]: 615 cpm
cpm bound to gel [8]: 1700 cpm

B3: recombinant full-length human annexin I (E. coli BL21(DE3), pET23b) (protein)
chain: MAMVSEFLKQAWFIENEEQEYVQTVKSSKGGPGSAVSPYPTFNPSSDVAALHKAIMVKGVDEATIIDILTKRNNAQRQQIKAAYLQETGKPLDETLKKALTGHLEEVVLALLKTPAQFDADELRAAMKGLGTDEDTLIEILASRTNKEIRDINRVYREELKRDLAKDITSDTSGDFRNALLSLAKGDRSEDFGVNEDLADSDARALYEAGERRKGTDVNVFNTILTTRSYPQLRRVFQKYTKYSKHDMNKVLDLELKGDIEKCLTAIVKCATSKPAFFAEKLHQAMKGVGTRHKALIRIMVSRSEIDMNDIKAFYQKMYGISLCQAILDETKGDYEKILVALCGGN
% of mannose labeled glycoproteins precipitated [9]: 2 to 3%
